Experimental data from US20140255405A1 (published 2014).

B1: DVD-D5 (antibody)
heavy: not shown
light: DTQMTQSPSSLSASVGDRVTITCRASQSISSYLAWYQQKPGKAPKLLIYAASSLYSGVPSRFSGSGSGTDFTLTISSLQPEDFATYYCQQYSSLPYTFGQGTKLEIKSPAPNLLGGPAIQMTQSPSSLSASVGDRVTITCQASQSINNELSWYQQKPGKAPKLLIYRASTLASGVPSRFSGSGSGTDFTLTISSLQPDDFATYYCQQGYSLRNIDNAFGGGTKVEIKRTVAAPSVFIFPPSDEQLKSGTASVVCLLNNFYPREAKVQWKVDNALQSGNSQESVTEQDSKDSTYSLSSTLTLSKADYEKHKVYACEVTHQGLSSPVTKSFNRGEC
notes: Monospecific control: dual variable domain human IgG1 like DVD-45 but with the Mab4 VL replaced by a germline-like dummy VL
B2: Mab5 (antibody, human IgG1, kappa, V domains shown)
VH: EVQLVESGGGLVQPGGSLRLSCAASGFSLSNYYVTWVRQAPGKGLEWVGIIYGSDETAYATSAIGRFTISRDNSKNTLYLQMNSLRAEDTAVYYCARDDSSDWDAKFNLWGQGTLVTVSS
VL: AIQMTQSPSSLSASVGDRVTITCQASQSINNELSWYQQKPGKAPKLLIYRASTLASGVPSRFSGSGSGTDFTLTISSLQPDDFATYYCQQGYSLRNIDNAFGGGTKVEIKR
B3: Mab4 (antibody, human IgG1, kappa)
heavy: not shown
light: DIVLTQSPASLAVSLGQRATISCRASESVGNFGISFMNWFQQKPGQPPKLLIYTASNQGSGVPARFSGSGSGTDFSLNIHPMEEDDSAMYFCQQSKEIPWTFGGGTKVEIKRTVAAPSVFIFPPSDEQLKSGTASVVCLLNNFYPREAKVQWKVDNALQSGNSQESVTEQDSKDSTYSLSSTLTLSKADYEKHKVYACEVTHQGLSSPVTKSFNRGEC
B4: Mab4-5L5H (bispecific antibody, human IgG1, kappa)
heavy: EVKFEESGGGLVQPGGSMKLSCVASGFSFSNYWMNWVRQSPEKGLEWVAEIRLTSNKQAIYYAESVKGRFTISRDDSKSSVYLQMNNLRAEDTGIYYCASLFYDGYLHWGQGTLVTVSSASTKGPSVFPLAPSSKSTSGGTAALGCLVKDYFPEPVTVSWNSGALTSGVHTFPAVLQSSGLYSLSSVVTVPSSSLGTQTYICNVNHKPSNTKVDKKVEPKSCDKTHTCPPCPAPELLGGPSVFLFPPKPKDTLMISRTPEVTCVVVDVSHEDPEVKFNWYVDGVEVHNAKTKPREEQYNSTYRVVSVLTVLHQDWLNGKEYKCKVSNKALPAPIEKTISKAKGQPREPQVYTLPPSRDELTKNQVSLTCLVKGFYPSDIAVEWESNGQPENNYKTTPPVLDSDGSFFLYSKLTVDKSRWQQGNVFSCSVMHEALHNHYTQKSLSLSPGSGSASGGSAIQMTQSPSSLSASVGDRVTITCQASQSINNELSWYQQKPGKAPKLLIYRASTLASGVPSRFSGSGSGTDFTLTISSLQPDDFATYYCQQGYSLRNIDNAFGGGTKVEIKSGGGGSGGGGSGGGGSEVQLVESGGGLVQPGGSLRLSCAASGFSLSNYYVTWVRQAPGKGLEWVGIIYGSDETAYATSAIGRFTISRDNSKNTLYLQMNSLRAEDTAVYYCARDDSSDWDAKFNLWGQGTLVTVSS
light: B3 light
notes: Bispecific, tetravalent human IgG1-scFv fusion: Mab5 scFv (VL-VH) fused to the C-terminus of CH3 of Mab4
B5: DVD-45 (bispecific antibody, human IgG1, kappa)
heavy: not shown
light: DIVLTQSPASLAVSLGQRATISCRASESVGNFGISFMNWFQQKPGQPPKLLIYTASNQGSGVPARFSGSGSGTDFSLNIHPMEEDDSAMYFCQQSKEIPWTFGGGTKLEIKSPAPNLLGGPAIQMTQSPSSLSASVGDRVTITCQASQSINNELSWYQQKPGKAPKLLIYRASTLASGVPSRFSGSGSGTDFTLTISSLQPDDFATYYCQQGYSLRNIDNAFGGGTKVEIKRTVAAPSVFIFPPSDEQLKSGTASVVCLLNNFYPREAKVQWKVDNALQSGNSQESVTEQDSKDSTYSLSSTLTLSKADYEKHKVYACEVTHQGLSSPVTKSFNRGEC
notes: Bispecific, tetravalent human IgG1 dual variable domain IgG: variable domains of Mab4 appended to the N-termini of the variable domains of Mab5

Tests used:
[1] = biological target: T1, Human C1q (Calbiochem, 204876) (human, UniProt P02745 23-245; P02746 28-253; P02747 29-245); experiment: ELISA on coated human C1q; antibody preincubated with equimolar IL6 or without IL6; anti-human Fc HRP detection
T1 construct: Bought human C1q coated on ELISA plates; also called complement C1q; complement component C1q
T1 sequence (P02745 23-245 limits assumed, chain 1 of 3): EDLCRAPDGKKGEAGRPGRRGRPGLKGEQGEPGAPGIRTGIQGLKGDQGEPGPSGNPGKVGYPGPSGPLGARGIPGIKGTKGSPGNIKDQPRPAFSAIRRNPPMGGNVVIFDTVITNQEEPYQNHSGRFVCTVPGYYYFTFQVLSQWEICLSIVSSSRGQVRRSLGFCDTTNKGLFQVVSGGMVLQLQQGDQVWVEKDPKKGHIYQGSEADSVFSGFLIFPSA
T1 sequence (P02746 28-253 limits assumed, chain 2 of 3): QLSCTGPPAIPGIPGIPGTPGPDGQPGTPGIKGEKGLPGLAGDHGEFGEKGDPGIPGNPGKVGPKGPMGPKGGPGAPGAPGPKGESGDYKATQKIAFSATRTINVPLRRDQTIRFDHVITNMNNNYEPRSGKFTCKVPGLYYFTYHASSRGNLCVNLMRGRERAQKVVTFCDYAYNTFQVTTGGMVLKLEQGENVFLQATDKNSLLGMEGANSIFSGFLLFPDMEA
T1 sequence (P02747 29-245 limits assumed, chain 3 of 3): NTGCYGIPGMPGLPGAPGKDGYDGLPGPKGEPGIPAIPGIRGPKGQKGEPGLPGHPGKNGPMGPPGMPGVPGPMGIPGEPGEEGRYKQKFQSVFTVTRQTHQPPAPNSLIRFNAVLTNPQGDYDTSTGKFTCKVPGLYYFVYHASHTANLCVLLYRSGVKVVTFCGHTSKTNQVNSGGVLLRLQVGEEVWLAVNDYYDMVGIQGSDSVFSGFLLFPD
Protocol: (§1) Determination of immune complex binding to complement C1q was performed using ELISA. Human C1q (Calbiochem, 204876) was coated onto maxisorp ELISA plates (NUNC, Denmark) at a concentration of 16 microgram/ml in a buffer containing 10 mM Tris HCl, pH 8 for 1 h and washed twice with 1× phosphate buffered saline supplemented with 0.1% Tween-20 (Merck KGaA, Germany, 8.17072.1000) (PBST). Plates were blocked with 2% skimmed milk powder (Roth, Germany T145.3) in PBST for 30 min and again washed twice with PBST. The prepared plates were then incubated with a preformed complex of antibody and IL6, at an equimolar IL6 and antibody binding site concentration of 11 nM, or with 11 nM antibody incubated without IL6, for 30 min.

human IL-6 [2] = biological target: T2, human IL-6 (human, UniProt P05231 30-212); experiment: cell-based or functional assay
human IL-6 [3] = biological target: T2, human IL-6; experiment: inferred from IL6-dependent signal in C1q ELISA; antibody preincubated with equimolar IL6 at 11 nM
Protocol: as §1

[4] = biological target: T1, Human C1q (Calbiochem, 204876); experiment: ELISA on coated human C1q; preformed complex of antibody and IL6, 11 nM binding sites; anti-human Fc HRP detection
Protocol: as §1

Row | Binder | binding result [1] | IC50 on 7TD1 cells (pM) (human IL-6 [2]) | IC50 on B9 cells (pM) (human IL-6 [2]) | binding result (human IL-6 [3]) | binding result [4]
1 | B1 | no binding (tested: 11 nM) |  |  |  | 
2 | B2 |  | 19.9 | 26.1 |  | 
3 | B3 | no binding (tested: 11 nM) | 2.6 | 8.4 |  | 
4 | B4 |  |  |  | binds | binds
5 | B5 |  | 1.3 | 2.9 |  | binds
